This test concerns the target IL-21_mouse_WT Fc fusion protein (mouse; human, UniProt Q9ES17 18-146). Description: BLI.

B1: recombinant human IL-21R His tag (Acro Biosystems) (receptor, not shown: small tags and cut ends)
chain: not shown
Regarding B1, binding was put at a Kd of 6.38 nM.

B2: mouse IL-21R, His-tagged (BLI antigen) (receptor, not shown: small tags and cut ends)
chain: not shown
In the case of B2, the Kd was 5.08 nM.

By Kd is commonly meant a measure of binding affinity in units of concentration. Lower therefore signals higher affinity.

Source of the values: patent publication US12281147 (dated 2025).
